In the experiment the target is T1, SARS-CoV-2 spike stem helix peptide (residues 1146-1159), displayed on yeast (SARS-CoV-2).
T1 chain: DSFKEELDKYFKNH
Nature of the experiment: flow cytometry on cells. The conditions noted are these: partners not purified. For orientation: In flow cytometry, cells or beads pass a laser one at a time.

B1: S2P6 in single-chain variable fragment (scFv) format (scFv, V domains shown)
VH: EVQLVQSGAEVKKPGASVKVSCKASGYTFTSQYMHWVRQAPGQGLEWIGIINPSGVHTSYAQKFQGRVTLTRDTSTSTLYMELSSLRSEDTAVYYCARGSPKGAFDYWGQGTLVTVSS
VL: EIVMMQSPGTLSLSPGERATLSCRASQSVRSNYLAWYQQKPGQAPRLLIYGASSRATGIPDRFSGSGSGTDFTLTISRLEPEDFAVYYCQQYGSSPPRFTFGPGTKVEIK
notes: not shown: HA, C-terminal, kept
Regarding B1, the binding result was “binds”.

The values above are taken from doi:10.1101/2024.06.06.597810 (bioRxiv, 2024).
